According to the supplement of paper PMC10126150:
± gives the standard deviation of the averaged measurements.

Tested on: ATP
Assay: switch fluorescence ratio, 500 uM ATP over buffer (Cy3 cluster intensity, sum of 5 cycles each) (fold (ratio)); higher = stronger signal-on switching upon ATP binding; sequences stand for … in TCGTCGGCAGCGTCAGATGTGTATAAGAGACAGTTTTTTTTTTTTTTTTTTTTTTTTT…TC
Conditions: aptamer strand: ATP DNA aptamer (quencher-CACCTGGGGGAGTATTGCGGAGGAAGG + anchor), 100 nM annealed; ATP concentration: 500 uM
Procedure, shortened: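 Five buffer/ATP imaging cycles were run on Cy3-labelled switching-strand clusters on a modified Illumina MiSeq flow-cell, with NaOH stripping and re-annealing between cycles. In each cycle, clusters annealed to 100 nM quencher-labelled ATP aptamer were imaged in selection buffer, then after 15 min with 500 uM ATP at 22 °C. Per cluster, the fluorescence ratio is summed target-cycle over summed buffer-cycle Cy3 intensity, averaged per switch-domain sequence. Only clusters within 100-1000 RFU were kept.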
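Note: ATP exposure 15 min at 22 °C before imaging.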

## GGTCGGGTAT
  switch fluorescence ratio: 1.01 ± 0.031

## GGTCGGGTGC
  switch fluorescence ratio: 0.971 ± 0.047

## GGTCGTAAGT
  switch fluorescence ratio: 0.988 ± 0.026

## GGTCGTAGAT
  switch fluorescence ratio: 1.01 ± 0.036

## GGTCGTTTCG
  switch fluorescence ratio: 1.01 ± 0.018

## GGTCTACATG
  switch fluorescence ratio: 0.985 ± 0.0076

## GGTCTAGG
  switch fluorescence ratio: 0.992 ± 0.036

## GGTCTCTGGA
  switch fluorescence ratio: 1.01 ± 0.06

## GGTCTGAGGG
  switch fluorescence ratio: 0.97 ± 0.032

## GGTCTGATGG
  switch fluorescence ratio: 0.987 ± 0.035

## GGTCTGGGAT
  switch fluorescence ratio: 0.9939 ± 0.0096

## GGTCTGGGCT
  switch fluorescence ratio: 0.976 ± 0.017

## GGTCTGTTAT
  switch fluorescence ratio: 1.04 ± 0.078

## GGTCTGTTTG
  switch fluorescence ratio: 0.97 ± 0.025

## GGTCTTCATT
  switch fluorescence ratio: 0.963 ± 0.011

## GGTGAAAACG
  switch fluorescence ratio: 0.9913 ± 0.0094

## GGTGACCGTT
  switch fluorescence ratio: 0.992 ± 0.012

## GGTGACTGAG
  switch fluorescence ratio: 1.012 ± 0.009

## GGTGAGACTT
  switch fluorescence ratio: 1 ± 0.031

## GGTGAGGATG
  switch fluorescence ratio: 0.994 ± 0.018

## GGTGAGGCGC
  switch fluorescence ratio: 0.985 ± 0.066

## GGTGAGGGAG
  switch fluorescence ratio: 0.9998 ± 0.0044

## GGTGAGGGGG
  switch fluorescence ratio: 1 ± 0.068

## GGTGAGTGCA
  switch fluorescence ratio: 1.02 ± 0.07

## GGTGAGTTGG
  switch fluorescence ratio: 0.977 ± 0.014

## GGTGATAATG
  switch fluorescence ratio: 0.982 ± 0.031

## GGTGATACGA
  switch fluorescence ratio: 1.07 ± 0.02

## GGTGATGTTA
  switch fluorescence ratio: 0.9786 ± 0.0049

## GGTGATTTGT
  switch fluorescence ratio: 1 ± 0.03

## GGTGATTTTA
  switch fluorescence ratio: 1 ± 0.025

## GGTGCACGGT
  switch fluorescence ratio: 0.978 ± 0.051

## GGTGCAGACG
  switch fluorescence ratio: 1.03 ± 0.018

## GGTGCATATT
  switch fluorescence ratio: 1.06 ± 0.081

## GGTGCATGTG
  switch fluorescence ratio: 0.9713 ± 0.0013

## GGTGCCTGAG
  switch fluorescence ratio: 1.06 ± 0.03

## GGTGCGGCTG
  switch fluorescence ratio: 1.01 ± 0.073

## GGTGCGGGAC
  switch fluorescence ratio: 1.16 ± 0.12

## GGTGCGTTCT
  switch fluorescence ratio: 1 ± 0.043

## GGTGCTGTCC
  switch fluorescence ratio: 1.033 ± 0.0011

## GGTGCTTATA
  switch fluorescence ratio: 1 ± 0.013

## GGTGGACCGA
  switch fluorescence ratio: 0.984 ± 0.083

## GGTGGAGAGC
  switch fluorescence ratio: 0.99885 ± 0.00089

## GGTGGATTCG
  switch fluorescence ratio: 1.06 ± 0.063

## GGTGGCTGAA
  switch fluorescence ratio: 0.99 ± 0.022

## GGTGGGAAGG
  switch fluorescence ratio: 0.993 ± 0.02

## GGTGGGATGT
  switch fluorescence ratio: 0.981 ± 0.02

## GGTGGGGGAT
  switch fluorescence ratio: 1.01 ± 0.015

## GGTGGGGTAA
  switch fluorescence ratio: 0.9927 ± 0.0083

## GGTGGGGTAG
  switch fluorescence ratio: 0.988 ± 0.021

## GGTGGGGTGT
  switch fluorescence ratio: 0.982 ± 0.05

## GGTGGGTAAT
  switch fluorescence ratio: 0.983 ± 0.015

## GGTGGGTCGT
  switch fluorescence ratio: 1.014 ± 0.0095

## GGTGGGTTAG
  switch fluorescence ratio: 1.02 ± 0.032

## GGTGTAGGCG
  switch fluorescence ratio: 0.969 ± 0.039

## GGTGTATAGT
  switch fluorescence ratio: 0.9908 ± 0.0079

## GGTGTCGTG
  switch fluorescence ratio: 0.98 ± 0.024

## GGTGTCTGT
  switch fluorescence ratio: 0.9738 ± 0.0044

## GGTGTGATGG
  switch fluorescence ratio: 0.9512 ± 0.0085

## GGTGTGCCGT
  switch fluorescence ratio: 0.989 ± 0.1

## GGTGTGGGGA
  switch fluorescence ratio: 0.994 ± 0.025

## GGTGTGTAGA
  switch fluorescence ratio: 1.02 ± 0.038

## GGTGTGTTAA
  switch fluorescence ratio: 0.996 ± 0.042

## GGTGTGTTTG
  switch fluorescence ratio: 1.01 ± 0.046

## GGTGTTAGAG
  switch fluorescence ratio: 0.985 ± 0.0036

## GGTGTTGAGA
  switch fluorescence ratio: 1.01 ± 0.04

## GGTGTTGGAG
  switch fluorescence ratio: 0.997 ± 0.019

## GGTGTTTCAT
  switch fluorescence ratio: 0.973 ± 0.053

## GGTGTTTTTA
  switch fluorescence ratio: 1.07 ± 0.067

## GGTTAAACAG
  switch fluorescence ratio: 0.982 ± 0.041

## GGTTAAATTT
  switch fluorescence ratio: 0.987 ± 0.021

## GGTTAACTAG
  switch fluorescence ratio: 1.02 ± 0.011

## GGTTAACTGG
  switch fluorescence ratio: 0.991 ± 0.023

## GGTTAAGATG
  switch fluorescence ratio: 0.986 ± 0.01

## GGTTAAGGTG
  switch fluorescence ratio: 1.28 ± 0.071

## GGTTAATCGG
  switch fluorescence ratio: 0.9983 ± 0.0029

## GGTTAATTGG
  switch fluorescence ratio: 0.99 ± 0.047

## GGTTACCAGA
  switch fluorescence ratio: 0.9973 ± 0.0065

## GGTTACCGGC
  switch fluorescence ratio: 0.977 ± 0.079

## GGTTACTGGA
  switch fluorescence ratio: 1.02 ± 0.018

## GGTTACTTGG
  switch fluorescence ratio: 0.9885 ± 0.0097

## GGTTAGCTGC
  switch fluorescence ratio: 0.991 ± 0.023

## GGTTAGGTCG
  switch fluorescence ratio: 1.06 ± 0.081

## GGTTAGGTGG
  switch fluorescence ratio: 0.99 ± 0.044

## GGTTATCTTG
  switch fluorescence ratio: 1.01 ± 0.019

## GGTTATGGCT
  switch fluorescence ratio: 0.9973 ± 0.0025

## GGTTATTGTG
  switch fluorescence ratio: 0.968 ± 0.027

## GGTTCAAGGA
  switch fluorescence ratio: 0.99 ± 0.063

## GGTTCAGCGC
  switch fluorescence ratio: 1.03 ± 0.041

## GGTTCAGGGT
  switch fluorescence ratio: 1.02 ± 0.023

## GGTTCATGGT
  switch fluorescence ratio: 0.989 ± 0.011

## GGTTCATTAG
  switch fluorescence ratio: 1.01 ± 0.037

## GGTTCCAAAA
  switch fluorescence ratio: 1.02 ± 0.029

## GGTTCGAAGT
  switch fluorescence ratio: 1.01 ± 0.048

## GGTTCGGCTG
  switch fluorescence ratio: 0.982 ± 0.012

## GGTTCTATAG
  switch fluorescence ratio: 0.993 ± 0.02

## GGTTCTGGCC
  switch fluorescence ratio: 0.996 ± 0.013

## GGTTCTTAGG
  switch fluorescence ratio: 1.01 ± 0.032

## GGTTCTTAGT
  switch fluorescence ratio: 0.978 ± 0.05

## GGTTCTTATT
  switch fluorescence ratio: 1.017 ± 0.0064

## GGTTGAAGTA
  switch fluorescence ratio: 0.989 ± 0.047
